Where two headings read alike, the source gives them in different places.

The test system of this assay is Human primary keratinocytes. Description: Keratinocyte growth in culture media: rhodamine B staining, confluency measured with Operetta plate reader. It counts as cell-based.

B1: KGF: Keratinocyte growth factor, encoded in humans by the FGF7 gene, binds FGFR2b (protein, UniProt P21781 32-194, looked up)
Fibroblast growth factor 7: CNDMTPEQMATNVNCSSPERHTRSYDYMEGGDIRVRRLFCRTQWYLRIDKRGKVKGTQEMKNNYNIMEIRTVAVGIVAIKGVESEFYLAMNKEGKLYAKKECNEDCNFKELILENHYNTYASAKWTHNGGEMFVALNQKGIPVRGKKTKKEQKTAHFLPMAIT
B1: the “effect of added KGF on keratinocyte growth, FIG. 1” value (shortened to “effect of added KGF”) is “cannot rescue the growth”. For the same molecule, the “effect of added KGF” value (added to Green's media + Y27632) is “fails to enhance keratinocyte growth”. Moreover, the “effect of added KGF” value (added to base media + Y27632) is “stimulates growth”. Also, the “effect of adding KGF to Base medium on keratinocyte growth, FIG. 2” value (in the presence of ROCK inhibitor SB772077B, no MEFs) was “critical component in Kelch's medium”.
